± gives the uncertainty stated by the source.
B1: KAT8 regulatory NSL complex subunit 2, residues 28 to 91; numbered along this chain, Q9H9L4 (parent)
chain: CAFTHRPCSHPRLEGQEFCIKHILEDKNAPFKQCSYISTKNGKRCPNAAPKPEKKDGVSFCAEH

Variants of: B1
Test: abundance fitness (aPCA) (normalised: wild type 0, dead -1); higher = more abundant; growth selection in yeast, the domain comes from the species named
Details: Homo sapiens

Q: With CAFTHRPCSHPRLEGQEFCIKHILEDKNAPFKQCSYISTKNGKRCKNAAPKPEKKDGVSFCAEH [P46K] as the variant, how does the abundance fitness read?
A: Its abundance fitness is 0.025 ± 0.1.

Q: With CAFTHRPCSHPRLEGQEFCIKHILEDKNAPFKQCSYISTKNGKRCFNAAPKPEKKDGVSFCAEH [P46F] as the variant, how does the abundance fitness read?
A: The abundance fitness was -0.148 ± 0.072.

Q: For CAFTHRPCSHPRLEGQEFCIKHILEDKNAPFKQCSYISTKNGKRCSNAAPKPEKKDGVSFCAEH [P46S], which abundance fitness is on record?
A: The abundance fitness was -0.049 ± 0.04.

Q: Which abundance fitness does the source give for CAFTHRPCSHPRLEGQEFCIKHILEDKNAPFKQCSYISTKNGKRCDNAAPKPEKKDGVSFCAEH [P46D] here?
A: Its abundance fitness is -0.155 ± 0.075.

Q: With CAFTHRPCSHPRLEGQEFCIKHILEDKNAPFKQCSYISTKNGKRCWNAAPKPEKKDGVSFCAEH [P46W] as the variant, how does the abundance fitness read?
A: The abundance fitness was -0.024 ± 0.062.

Q: Which abundance fitness does the source give for CAFTHRPCSHPRLEGQEFCIKHILEDKNAPFKQCSYISTKNGKRCYNAAPKPEKKDGVSFCAEH [P46Y] here?
A: Its abundance fitness is -0.105 ± 0.065.

Q: For CAFTHRPCSHPRLEGQEFCIKHILEDKNAPFKQCSYISTKNGKRCVNAAPKPEKKDGVSFCAEH [P46V], which abundance fitness is on record?
A: Its abundance fitness is -0.069 ± 0.068.

Q: Which abundance fitness does the source give for CAFTHRPCSHPRLEGQEFCIKHILEDKNAPFKQCSYISTKNGKRCCNAAPKPEKKDGVSFCAEH [P46C] here?
A: The abundance fitness was -0.065 ± 0.056.

Q: For CAFTHRPCSHPRLEGQEFCIKHILEDKNAPFKQCSYISTKNGKRCENAAPKPEKKDGVSFCAEH [P46E], which abundance fitness is on record?
A: The abundance fitness was -0.031 ± 0.094.

Q: Which abundance fitness does the source give for CAFTHRPCSHPRLEGQEFCIKHILEDKNAPFKQCSYISTKNGKRCQNAAPKPEKKDGVSFCAEH [P46Q] here?
A: The abundance fitness was -0.1 ± 0.1.

Q: Which abundance fitness does the source give for CAFTHRPCSHPRLEGQEFCIKHILEDKNAPFKQCSYISTKNGKRCHNAAPKPEKKDGVSFCAEH [P46H] here?
A: The abundance fitness was -0.165 ± 0.083.

Q: Which abundance fitness does the source give for CAFTHRPCSHPRLEGQEFCIKHILEDKNAPFKQCSYISTKNGKRCTNAAPKPEKKDGVSFCAEH [P46T] here?
A: The abundance fitness was -0.049 ± 0.056.

Q: With CAFTHRPCSHPRLEGQEFCIKHILEDKNAPFKQCSYISTKNGKRCGNAAPKPEKKDGVSFCAEH [P46G] as the variant, how does the abundance fitness read?
A: The abundance fitness was -0.022 ± 0.037.

Q: Which abundance fitness does the source give for CAFTHRPCSHPRLEGQEFCIKHILEDKNAPFKQCSYISTKNGKSCPNAAPKPEKKDGVSFCAEH [R44S] here?
A: Its abundance fitness is -0.038 ± 0.05.

Q: With CAFTHRPCSHPRLEGQEFCIKHILEDKNAPFKQCSYISTKNGKFCPNAAPKPEKKDGVSFCAEH [R44F] as the variant, how does the abundance fitness read?
A: The abundance fitness was -0.144 ± 0.089.

Q: With CAFTHRPCSHPRLEGQEFCIKHILEDKNAPFKQCSYISTKNGKECPNAAPKPEKKDGVSFCAEH [R44E] as the variant, how does the abundance fitness read?
A: The abundance fitness was -0.139 ± 0.092.

Q: Which abundance fitness does the source give for CAFTHRPCSHPRLEGQEFCIKHILEDKNAPFKQCSYISTKNGKGCPNAAPKPEKKDGVSFCAEH [R44G] here?
A: Its abundance fitness is -0.027 ± 0.059.

Q: With CAFTHRPCSHPRLEGQEFCIKHILEDKNAPFKQCSYISTKNGKNCPNAAPKPEKKDGVSFCAEH [R44N] as the variant, how does the abundance fitness read?
A: Its abundance fitness is -0.014 ± 0.13.

Q: With CAFTHRPCSHPRLEGQEFCIKHILEDKNAPFKQCSYISTKNGKHCPNAAPKPEKKDGVSFCAEH [R44H] as the variant, how does the abundance fitness read?
A: The abundance fitness was -0.051 ± 0.12.

Q: For CAFTHRPCSHPRLEGQEFCIKHILEDKNAPFKQCSYISTKNGKKCPNAAPKPEKKDGVSFCAEH [R44K], which abundance fitness is on record?
A: The abundance fitness was -0.071 ± 0.06.

Q: For CAFTHRPCSHPRLEGQEFCIKHILEDKNAPFKQCSYISTKNGKDCPNAAPKPEKKDGVSFCAEH [R44D], which abundance fitness is on record?
A: Its abundance fitness is -0.102 ± 0.091.

Q: For CAFTHRPCSHPRLEGQEFCIKHILEDKNAPFKQCSYISTKNGKMCPNAAPKPEKKDGVSFCAEH [R44M], which abundance fitness is on record?
A: The abundance fitness was -0.04 ± 0.059.

Q: With CAFTHRPCSHPRLEGQEFCIKHILEDKNAPFKQCSYISTKNGKWCPNAAPKPEKKDGVSFCAEH [R44W] as the variant, how does the abundance fitness read?
A: The abundance fitness was -0.112 ± 0.052.

Q: With CAFTHRPCSHPRLEGQEFCIKHILEDKNAPFKQCSYISTKNGKQCPNAAPKPEKKDGVSFCAEH [R44Q] as the variant, how does the abundance fitness read?
A: Its abundance fitness is 0.005 ± 0.065.

Q: For CAFTHRPCSHPRLEGQEFCIKHILEDKNAPFKQCSYISTKNGKCCPNAAPKPEKKDGVSFCAEH [R44C], which abundance fitness is on record?
A: The abundance fitness was -0.026 ± 0.071.

Q: For CAFTHRPCSHPRLEGQEFCIKHILEDKNAPFKQCSYISTKNGKTCPNAAPKPEKKDGVSFCAEH [R44T], which abundance fitness is on record?
A: Its abundance fitness is -0.029 ± 0.077.

Q: For CAFTHRPCSHPRLEGQEFCIKHILEDKNAPFKQCSYISTKNGKPCPNAAPKPEKKDGVSFCAEH [R44P], which abundance fitness is on record?
A: The abundance fitness was -0.067 ± 0.058.

Q: For CAFTHRPCSHPRLEGQEFCIKHILEDKNAPFKQCSYISTKNGKRIPNAAPKPEKKDGVSFCAEH [C45I], which abundance fitness is on record?
A: Its abundance fitness is -0.594 ± 0.086.

Q: Which abundance fitness does the source give for CAFTHRPCSHPRLEGQEFCIKHILEDKNAPFKQCSYISTKNGKRMPNAAPKPEKKDGVSFCAEH [C45M] here?
A: The abundance fitness was -0.438 ± 0.061.

Q: With CAFTHRPCSHPRLEGQEFCIKHILEDKNAPFKQCSYISTKNGKRRPNAAPKPEKKDGVSFCAEH [C45R] as the variant, how does the abundance fitness read?
A: Its abundance fitness is -0.635 ± 0.059.

Q: Which abundance fitness does the source give for CAFTHRPCSHPRLEGQEFCIKHILEDKNAPFKQCSYISTKNGKRNPNAAPKPEKKDGVSFCAEH [C45N] here?
A: The abundance fitness was -0.398 ± 0.084.

Q: Which abundance fitness does the source give for CAFTHRPCSHPRLEGQEFCIKHILEDKNAPFKQCSYISTKNGKRVPNAAPKPEKKDGVSFCAEH [C45V] here?
A: The abundance fitness was -0.465 ± 0.063.

Q: With CAFTHRPCSHPRLEGQEFCIKHILEDKNAPFKQCSYISTKNGKRHPNAAPKPEKKDGVSFCAEH [C45H] as the variant, how does the abundance fitness read?
A: Its abundance fitness is -0.581 ± 0.12.

Q: With CAFTHRPCSHPRLEGQEFCIKHILEDKNAPFKQCSYISTKNGKRSPNAAPKPEKKDGVSFCAEH [C45S] as the variant, how does the abundance fitness read?
A: Its abundance fitness is -0.378 ± 0.049.

Q: Which abundance fitness does the source give for CAFTHRPCSHPRLEGQEFCIKHILEDKNAPFKQCSYISTKNGKREPNAAPKPEKKDGVSFCAEH [C45E] here?
A: The abundance fitness was -0.193 ± 0.09.

Q: With CAFTHRPCSHPRLEGQEFCIKHILEDKNAPFKQCSYISTKNGKRAPNAAPKPEKKDGVSFCAEH [C45A] as the variant, how does the abundance fitness read?
A: Its abundance fitness is -0.459 ± 0.093.

Q: For CAFTHRPCSHPRLEGQEFCIKHILEDKNAPFKQCSYISTKNGKRFPNAAPKPEKKDGVSFCAEH [C45F], which abundance fitness is on record?
A: Its abundance fitness is -0.609 ± 0.096.

Q: For CAFTHRPCSHPRLEGQEFCIKHILEDKNAPFKQCSYISTKNGKRGPNAAPKPEKKDGVSFCAEH [C45G], which abundance fitness is on record?
A: The abundance fitness was -0.427 ± 0.057.

Q: Which abundance fitness does the source give for CAFTHRPCSHPRLEGQEFCIKHILEDKNAPFKQCSYISTKNGKRWPNAAPKPEKKDGVSFCAEH [C45W] here?
A: The abundance fitness was -0.79 ± 0.056.

Q: With CAFTHRPCSHPRLEGQEFCIKHILEDKNAPFKQCSYISTKNGKRYPNAAPKPEKKDGVSFCAEH [C45Y] as the variant, how does the abundance fitness read?
A: Its abundance fitness is -0.671 ± 0.1.

Q: Which abundance fitness does the source give for CAFTHRPCSHPRLEGQEFCIKHILEDKNAPFKQCSYISTKNGKRPPNAAPKPEKKDGVSFCAEH [C45P] here?
A: The abundance fitness was -0.561 ± 0.078.

Q: For CAFTHRPCSHPRLEGQEFCIKHILEDKNAPFKQCSYISTKNGKRLPNAAPKPEKKDGVSFCAEH [C45L], which abundance fitness is on record?
A: Its abundance fitness is -0.441 ± 0.046.

From the Human Domainome abundance scans (Beltran et al. 2025)
